We go through 17 molecules from patent publication US20230212266A1 (FRED HUTCHINSON CANCER CENTER, published 2023).

Where a chain is given by its changes, count along the chain named. Read-outs that look alike come from different tables or passages of the source.

Experiment in all cases: BLI, mAb on anti-human Fc probe, antigen in solution
(In general: BLI is a label-free optical method that tracks binding on a fibre tip over time.)

For assay [1], the target named is T1, SARS-CoV-2 receptor binding domain (RBD) (SARS-CoV-2, UniProt P0DTC2 319-591).
Assay [2] concerns the target T1, SARS-CoV-2 receptor binding domain (RBD). The source holds these as a separate data set.
For assay [3] the target is unchanged. This is another data set of the same source.
For assay [4] the target is unchanged. The source holds these as a separate data set.
Assay [5] has the same target. The source holds these as a separate data set.
Assay [6] shares this target. This is another data set of the same source.
The target is the same in assay [7]. The source holds these as a separate data set.
The target is the same in assay [8]. The source holds these as a separate data set.
The target is the same in assay [9]. This is another data set of the same source.
Assay [10] shares this target. The source holds these as a separate data set.
For assay [11] the target is unchanged. This is another data set of the same source.
Assay [12] has the same target. The source holds these as a separate data set.
For assay [13] the target is unchanged. The source holds these as a separate data set.
Assay [14] has the same target. This is another data set of the same source.
The target is the same in assay [15]. This is another data set of the same source.
For assay [16] the target is unchanged. The source holds these as a separate data set.
Assay [17] has the same target. The source holds these as a separate data set.

B1: CV2-2 (antibody, V domains shown)
VH: EVQLLESGGGLAQPGGSLRLSCAASGFTFSSYAMSWVRQAPGKGLEWVSAISGSGGNTYYADSLKGRFTISRDNSKSTLYLQMNSLRAEDTAVYYCAKGPMWQWLVRLSLVGDYWGQGTLVTVSS
VL: SYVLTQPPSVSVAPGQTARITCGGNNIGSKGVHWYQQKPGQAPVLVVFDDSDRPSGIPERFSGSNSGNTATLTISRVEAGDEADYYCQVWDSTSDHPGYVFGTGTKVTVL
notes: expressed as IgG
Regarding B1, the binding result in assay [1] is on record as “no binding”.

B2: CV39 (antibody, V domains shown)
VH: QVQLVESGGGVVQPGRSMRLSCAASGFNLSSYAMHWVRQASGKGLEWVSLISYDGSIKYYADSVKGRFTVSGDNSKNTLFLQMSSLRADDSALYYCVRGGVSGPNAFDIWGQGTTVTVSS
VL: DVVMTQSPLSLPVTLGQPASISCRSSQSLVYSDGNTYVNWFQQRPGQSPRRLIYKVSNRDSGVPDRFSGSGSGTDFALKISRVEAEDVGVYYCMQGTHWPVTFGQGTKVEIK
notes: expressed as IgG
As for B2, the binding result in assay [2] was “no binding”.

B3: CV33 (antibody, V domains shown)
VH: QVQLVQSGAEVKKPGASVKVSCKASGYTFTSYDISWVRQAPGQGLEWMGWISAYNGNTNYAQKLQGRVTMTTDTSTSTAYMELRSLRSDDTAVYYCARDSVAGIYYYYGMDVWGQGTTVTVSS
VL: QSVLTQPPSVSGAPGQRVTISCTGSSSNIGAGYDVHWYQQLPGTAPKLLIYGNSNRPSGVPDRFSGSKSGTSASLAITGLQAEDEADYYCQSYDSSLSGPVVFGGGTKLTVL
notes: expressed as IgG
For B3, in assay [3], the binding result is “no binding”.

B4: CV34 (antibody, V domains shown)
VH: QVQLVESGGGVVQPGRSLRLSCAASGFTFSSYAMHWVRQAPGKGLEWVAVISYDGSNKYYADSVKGRFTISRDNSKNTLYLQMNSLRAEDTAVYYCARSYGGSYYYGMDVWGQGTTVTVSS
VL: SYELTQPHSVSVATAQMARITCGGNNIGSKAVHWYQQKPGQDPVLVIYSDSNRPSGIPERFSGSNPGNTATLTISRIEAGDEADYYCQVWDSSSDHVVFGGGTKLTVL
notes: expressed as IgG
With B4, the binding result in [4] is “no binding”.

B5: CV41 (antibody, V domains shown)
VH: B4 VH with S99T, Y100K, Y105F, Y106A, G107P, M108F, V110Y, T116L
VL: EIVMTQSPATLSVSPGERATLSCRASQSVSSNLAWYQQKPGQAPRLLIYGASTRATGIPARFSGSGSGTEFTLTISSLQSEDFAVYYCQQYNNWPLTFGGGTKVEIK
notes: expressed as IgG
With B5, the binding result in assay [5] is “no binding”.

B6: CV2-1 (antibody, V domains shown)
VH: B4 VH with V93I, S99P, G101S, Y106A, G107Y, M108F, V110Y, T116L
VL: EIVMTQSPATLSVSPGERATLSCRASQSVSSNLAWYQQKPGQAPRLLIYGASTRATGIPARFSGSGSGTEFTLTISSLQSEDFAVYYCQQYNNWLALTFGGGTKVEIK
notes: expressed as IgG
As to B6, the binding result in [6] is listed as “no binding”.

B7: CV36 (antibody, V domains shown)
VH: QVQLVQSGAEVKKPGASVKVSCKASGYTFTGYYMHWVRQAPGQGLEWMGWINPNSGGTNYVQKFQGRVTMTRDTSISTAYMELNRLRSDDTAVYFCARDLTTTAGTDYYYGMDVWGQGTTVTVSS
VL: SYELTQPPSVSVSPGQTARITCSGDALPKQYAYWYQQKPGQAPVLVIYKDTERPSGIPERFSGSSSGTTVTLTISGVQAEDEADYYCQSADSSGTYMIFGTGTKVTVL
notes: expressed as IgG
Take B7: the binding result in [7] is given as “no binding”.

B8: CV6 (antibody, V domains shown)
VH: QVQLVQSGAEVKKPGASVKVSCKVSGYTLTELSMHWVRQAPGKGLEWMGGFDPEDGETIYAQKFQGRVTMTEDTSTDTAYMELSSLRSEDTAVYYCATGPPYCSSTSCEHWFDPWGQGTLVTVSS
VL: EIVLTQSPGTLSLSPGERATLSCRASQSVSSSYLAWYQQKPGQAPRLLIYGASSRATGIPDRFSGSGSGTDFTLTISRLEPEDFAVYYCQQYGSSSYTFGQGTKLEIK
notes: expressed as IgG
For the molecule B8, the binding result in [8] is “no binding”.

B9: CV42 (antibody, V domains shown)
VH: QVQLVQSGAEVKKPGASVKVSCKASGYTFTSYGISWVRQAPGQGLEWMGWISAYNGNTNYAQKVQGRVTMTTDTSTSTAYMELRSLRSDDTAVYYCARDRGYAATFGVFDYWGQGTLVTVSS
VL: DIQMTQSPSSLSASVGDRVTITCRASQSISSYLNWYQQKPGKAPKFLIYAASSLQSGVPSRFSGSGSGTDFTLTISSLQPEDFATYYCQQTYITAFTFGPGTKVDIK
notes: expressed as IgG
B9: in assay [9], the binding result was “no binding”.

B10: CV40 (antibody, V domains shown)
VH: QVQLVQSGAEVKKPGASVKVSCKASGYTFSSYGISWVRQDPGQGLEWMGWISAYNGNTNYAQKLQGRVTMTTDTSTSTAYMELRSLRSDDTAVYYCARVGLWWLGHPDAFDIWGQGTMVTVSS
VL: DIQMTQSPSSLSASVGDRVTITCRASQGIRNDLGWYQQKPGKAPKRLIYAASSLQSGVPSRFSGSGSGTEFTLTISSLQPEDFATYYCLQHNSYPLTFGGGTKVEIK
notes: expressed as IgG
On to B10, for which the binding result in assay [10] is recorded as “no binding”.

B11: CV2-3 (antibody, V domains shown)
VH: QLQLQESGPGLVKPSETLSLTCTVSGGSISSSTYYWGWIRQPPGKGLEWIGNIYYTGSTYYNPSLKSRVTISVDTSKNHFSLRLSSVTAADTAVYYCARHNRFWSEDTPFDPWGQGTLVTVSS
VL: B10 VL
notes: expressed as IgG
Take B11: the binding result in assay [11] is recorded as “no binding”.

B12: CV47 (antibody, V domains shown)
VH: B10 VH with S30T, D40A, N55S, L83V, A109V
VL: B10 VL
notes: expressed as IgG
For the molecule B12, the binding result in assay [12] is “no binding”.

B13: CV2-4 (antibody, V domains shown)
VH: QVQLVQSGAEVKKPGSSVKVSCKASGGTFSSYAITWVRQAPGQGLEWMGGIIPIFGTANYAQKFQGRVTITADESTSTAYMELSSLRSEDTAVYYCVRVALYDSSGYSPDYWGQGTLVTVSS
VL: EIVLTQSPATLSLSPGERATLSCRASQSVSNFLAWYQQKPGQAPRLLIYDASNRATGIPARFSGSGSGTDFTLTISSLEPEDFAVYYCQHRSNWPPGITFGQGTRLEIK
notes: expressed as IgG
Turning to B13, the binding result in [13] was “no binding”.

B14: CV32 (antibody, V domains shown)
VH: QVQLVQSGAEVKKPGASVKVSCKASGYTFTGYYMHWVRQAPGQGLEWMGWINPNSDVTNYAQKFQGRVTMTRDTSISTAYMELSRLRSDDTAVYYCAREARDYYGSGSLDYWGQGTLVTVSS
VL: QSVLTQPPSVSAAPGQKVTISCSGSSSNIGNNYVSWYQQLPGTAPKLLIYDNNKRPSGIPDRFSGSKSGTSATLGITGLQTGDEADYYCGTWDSSLSAVVFGGGTKLTVL
notes: expressed as IgG
Regarding B14, in [14], the binding result is recorded as “no binding”.

B15: CV48 (antibody, V domains shown)
VH: QVQLVQSGAEVKKPGSSVKVSCKASGGTFSSYTINWVRQAPGQGLEWMGRIIPILGIADYAQKFQGRVTITADKSTSTAYMELSSLRSEDTAVYYCARDLVEDTAMVTGAAAGTWGQGTLVTVSS
VL: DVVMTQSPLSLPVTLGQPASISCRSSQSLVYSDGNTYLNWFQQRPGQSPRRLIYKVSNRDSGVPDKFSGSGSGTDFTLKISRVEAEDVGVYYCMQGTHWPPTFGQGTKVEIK
notes: expressed as IgG
Turning to B15, in assay [15], the binding result is listed as “no binding”.

B16: CV37 (antibody, V domains shown)
VH: QVQLVQSGAEVKKPGASVKVSCKASGYTFTSYGISWVRQAPGQGLEWMGWISAYNGNTNYAQKLQGRVTMTTDTSTSTAYMELRSLRSDDTAVYYCARARVAYDYIWGSYRYKAFDYWGQGTLVTVSS
VL: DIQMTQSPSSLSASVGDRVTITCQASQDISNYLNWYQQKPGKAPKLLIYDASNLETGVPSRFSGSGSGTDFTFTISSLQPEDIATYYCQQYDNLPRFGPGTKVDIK
notes: expressed as IgG
Consider B16, for which, in assay [16], the binding result is “no binding”.

B17: CV44 (antibody, V domains shown)
VH: QVQLVQSGAEVKKPGASVKVSCKASGYTFTSYYMHWVRQAPGQGLEWMGIINPSGGSTSYAQKFQGRVTMTRDTSTSTVYMELSSLRSEDTAVYYCARDLTSTSSSPYSYYYGMDVWGQGTTVTVSS
VL: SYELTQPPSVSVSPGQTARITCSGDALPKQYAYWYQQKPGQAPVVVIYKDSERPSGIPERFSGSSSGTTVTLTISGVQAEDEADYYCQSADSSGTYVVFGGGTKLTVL
notes: expressed as IgG
Consider B17, for which the binding result in assay [17] is recorded as “no binding”.
